In paper PMC11261447 one finds decrease in ubiquitination level of HA-OGT-D4 against HA-OGT-WT in 293T cells transfected with Myc-Ub and Flag-CDC20 (anti-HA precipitates blotted with anti-Myc) data, which are given here for one substance.

This test concerns the target HA-OGT-D4 (D-box mutant R351A/L354A) (UniProt O15294).

Turning to “Flag-CDC20 (from UniProt Q12834 1-499) (natural protein)”, the decrease in ubiquitination level of HA-OGT-D4 against HA-OGT-WT in 293T cells transfected with Myc-Ub and Flag-CDC20 (anti-HA precipitates blotted with anti-Myc) was 50%.
